The record followed here is US20250026849A1 (ARCELLX, published 2025).

T1: CD123 (Homo sapiens (Human), UniProt P26951 19-305, limits assumed)
T1 sequence: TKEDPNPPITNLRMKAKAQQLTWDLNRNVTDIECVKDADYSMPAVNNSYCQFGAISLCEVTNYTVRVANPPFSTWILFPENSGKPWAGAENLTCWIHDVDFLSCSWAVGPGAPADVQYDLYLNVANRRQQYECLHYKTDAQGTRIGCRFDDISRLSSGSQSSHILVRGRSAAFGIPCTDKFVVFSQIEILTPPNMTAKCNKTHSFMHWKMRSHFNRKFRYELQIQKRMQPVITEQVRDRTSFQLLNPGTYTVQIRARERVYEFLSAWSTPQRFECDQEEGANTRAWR

T2: extracellular domain of human CS1 protein (human, UniProt Q9NQ25 23-226)
T2 construct: Panning target; also called CS1 mature ECD
T2 sequence: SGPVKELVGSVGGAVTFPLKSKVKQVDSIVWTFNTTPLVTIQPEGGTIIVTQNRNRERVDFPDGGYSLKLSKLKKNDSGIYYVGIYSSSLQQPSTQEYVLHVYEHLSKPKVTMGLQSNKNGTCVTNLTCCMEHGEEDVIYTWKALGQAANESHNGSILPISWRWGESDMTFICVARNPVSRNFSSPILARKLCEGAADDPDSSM

B1: D-domain SEQ ID NO: 343 (designed binder)
chain: MGSWFEFWDRLEAIDDRLFALGGSEAELAAFEKEIAAFESELQAYKGKGNPEVESLRYNAAEIRKELQAYRHN
B2: D-domain SEQ ID NO: 346 (designed binder)
chain: MGSWHEFWDRLEAIDDRLYALGGSEAELAAFEKEIAAFESELQAYKGKGNPEVEFLREEAAYIRELLQAYRHN
B3: D-domain SEQ ID NO: 347 (designed binder)
chain: MGSWEEFWDRLFAIDDRLWALGGSEAELAAFEKEIAAFESELQAYKGKGNPEVETLRNEAAEIRMALQAYRHN
B4: D-domain SEQ ID NO: 344 (designed binder)
chain: MGSWHEFWSRLDAIDDRLFALGGSEAELAAFEKEIAAFESELQAYKGKGNPEVEYLRGAAADIRAELQAYRHN
B5: D-domain SEQ ID NO: 345 (designed binder)
chain: MGSWYEFWIRLEAIDDRLFALGGSEAELAAFEKEIAAFESELQAYKGKGNPEVDILRDFAADIRTELQAYRHN
B6: D-domain SEQ ID NO: 348 (designed binder)
chain: MGSWWEFDDRLFAIDTRLMALGGSEAELAAFEKEIAAFESELQAYKGKGNPEVESLREWAATIRMELQAYRHN
B7: D-domain SEQ ID NO: 341 (designed binder)
chain: MGSWIEFHERLWAIEDRLWALGGSEAELAAFEKEIAAFESELQAYKGKGNPEVESLREMAASIRHGLQAYRHN
B8: D-domain SEQ ID NO: 342 (designed binder)
chain: MGSWFEFYERLWAIDDRLWALGGSEAELAAFEKEIAAFESELQAYKGKGNPEVEWLREEAASIRSSLQAYRHN
B9: D domain SEQ ID NO: 800 (designed binder)
chain: MGSWHEFRWRLFAIWQRLHALGGSEAELAAFEKEIAAFESELQAYKGKGNPEVEWLRLDAALIRVMLQAYRHN
B10: cc01 CS1 ADBD (SEQ ID NO: 780) (designed binder)
chain: MGSWVEFEARLSAIYERLEALGGSEAELAAFEKEIAAFESELQAYKGKGNPEVEKLRRHAAGIRSNLQAYRHN
B11: cc02 CS1 ADBD (SEQ ID NO: 781) (designed binder)
chain: MGSWVEFFVRLDAIWERLEALGGSEAELAAFEKEIAAFESELQAYKGKGNPEVETLRFHAAGIRQKLQAYRHN
B12: cc08 CS1 ADBD (SEQ ID NO: 787) (designed binder)
chain: MGSWVEFNERLHAIYLRLDALGGSEAELAAFEKEIAAFESELQAYKGKGNPEVETLRRHAAGIRWQLQAYRHN
B13: cc10 CS1 ADBD (SEQ ID NO: 789) (designed binder)
chain: MGSWMEFEARLEAIWDRLEALGGSEAELAAFEKEIAAFESELQAYKGKGNPEVESLRFHAAGIRQHLQAYRHN
B14: cc12 CS1 ADBD (SEQ ID NO: 791) (designed binder)
chain: MGSWHHFKMHLAGIKLQLEALGGSEAELAEFEEWIADFEGALQDYKGKGNPEVEALRKEAAAIRDELQAYRHN
B15: cc09 CS1 ADBD (SEQ ID NO: 788) (designed binder)
chain: MGSWNEFKLELAFIKDWLEALGGSEAELANFEEAIAEFEAGLQGYKGKGNPEVEALRKEAAAIRDELQAYRHN
B16: eb03 HER2 ADBD (SEQ ID NO: 804) (designed binder)
chain: MGSWAEFRWRLHAIWLQLGALGGSEAELAAFEKEIAAFESELQAYKGKGNPEVEWLRQDAAQIKYILQAYRHN

In one experiment the target is T1, CD123. As to the kind of experiment: ELISA, format not described. Also noted: unit not given here.
Consider B1, for which the ELISA_avg was found to be 4.9.

In turn, B2 showed an ELISA_avg of 10.6.

In turn, B3 yielded an ELISA_avg of 3.1.

B4 showed an ELISA_avg of 3.8.

Take B5: the ELISA_avg stood at 10.4.

Regarding B6, the ELISA_avg came out at 3.5.

B7 displayed an ELISA_avg of 3.4.

B8: the ELISA_avg turned out to be 6.

For another experiment, the target named is T3, HER2 (human, UniProt P04626 23-652).
T3 construct: also called ERBB2; CD340
Put plainly: ELISA, format not described. On the set-up: unit not given here. For orientation: ELISA stands for enzyme-linked immunosorbent assay.
In turn, B9 registered an ELISA_avg of 10.

Another experiment deals with T2, extracellular domain of human CS1 …. Put plainly: phage display panning.
Take B10: the binding result is reported as “binds”.

With B11, the binding result is recorded as “binds”.

In the case of B12, the binding result is “binds”.

With B13, the binding result was “binds”.

As for B14, the binding result is on record as “binds”.

As to B15, the binding result was “binds”.

The target in the next experiment is T4, extracellular domain of human HER2 protein (human, UniProt P04626 23-652).
T4 construct: Panning target; also called HER2 mature ECD; HER2 (ERBB2, CD340)
Put plainly: phage display panning.
As to B16, the binding result is “binds”.
